Tests used:
[1] = target: neurotensin receptor 1 (NTR1), human, prepared from CHO cells recombinantly expressing the human receptor (human) (UniProt P30989)
[2] = target: NTR1 on HT29 or NTR1-expressing HEK293 cells (UniProt P30989); assay: cell-based or functional assay
[3] = target: sst (non-selective), somatostatin receptor; assay: Cerep ExpresSProfile radioligand competition binding, reference compound (agonist radioligand)

Sequence of neurotensin receptor 1 (NTR1), human, prepared from CHO cells recombinantly expressing the human receptor (human) (P30989 whole entry): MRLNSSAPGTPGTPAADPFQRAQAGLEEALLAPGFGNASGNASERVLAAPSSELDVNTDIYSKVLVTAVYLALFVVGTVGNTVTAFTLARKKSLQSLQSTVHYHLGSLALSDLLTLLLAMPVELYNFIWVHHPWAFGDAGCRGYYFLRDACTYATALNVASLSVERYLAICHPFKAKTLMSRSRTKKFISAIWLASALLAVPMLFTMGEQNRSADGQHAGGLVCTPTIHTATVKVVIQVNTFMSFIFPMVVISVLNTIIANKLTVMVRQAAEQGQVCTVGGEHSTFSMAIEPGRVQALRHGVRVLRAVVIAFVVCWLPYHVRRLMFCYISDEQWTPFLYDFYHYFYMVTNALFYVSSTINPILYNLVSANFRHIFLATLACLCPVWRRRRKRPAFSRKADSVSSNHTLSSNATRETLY
Sequence of NTR1 on HT29 or NTR1-expressing HEK293 cells (P30989 whole entry): as above

1206-Glutar-Ttds3-Asn-Ala-Val-Pro-Asn-Leu-Arg-Gly-Asp-Leu-Gln-Val-Leu-Ala-Gln-Lys-Val-Ala-Arg-Thr-GA (peptide)
IC50 [1]: 9.9 nM | Agonistic Effect EC50 [nM], functional Ca2+ mobilisation assay [2]: > 50000 nM | Antagonistic Effect IC50 [nM], functional Ca2+ mobilisation assay [2]: 38 nM

1206-Glutar-Ttds-Lys(1206-Glutar-Ttds)-Ttds-Asn-Ala-Val-Pro-Asn-Leu-Arg-Gly-Asp-Leu-Gln-Val-Leu-Ala- (peptide)
IC50 [1]: 7.5 nM | Agonistic Effect EC50 [nM], functional Ca2+ mobilisation assay [2]: > 50000 nM | Antagonistic Effect IC50 [nM], functional Ca2+ mobilisation assay [2]: 12 nM

1206-Glutar-Ttds-Lys(DOTA)-Ttds-GABA-Asn-Ala-Val-Pro-Asn-Leu-Arg-Gly-Asp-Leu-Gln-Val-Leu-Ala-Gln-Lys (peptide)
IC50 [1]: 10 nM | Agonistic Effect EC50 [nM], functional Ca2+ mobilisation assay [2]: > 50000 nM | Antagonistic Effect IC50 [nM], functional Ca2+ mobilisation assay [2]: 18 nM

alpha-dendrotoxin (from UniProt P00980 1-59) (peptide)
Ki (KV channel): 0.2 nM

apamin (from UniProt P01500 28-45) (peptide)
Ki (SKCa channel): 0.0084 nM

somatostatin-14 (from UniProt P61278 103-116) (peptide)
Ki [3]: 0.11 nM
